The test has as its target barnase (UniProt P00648). The test is described as follows: cell-based or functional assay.
Sequence of UniProt P00648 (P00648 48-157 limits assumed): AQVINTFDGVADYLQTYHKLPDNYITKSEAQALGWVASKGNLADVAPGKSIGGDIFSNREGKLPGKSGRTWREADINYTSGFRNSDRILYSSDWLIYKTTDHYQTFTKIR

In turn, barstar (from UniProt P11540 2-90) displayed a percent LUC positive shoots from barstar5 explants transformed with pBH700 (against 15% from wild type explants without barstar) of 46%.

For the origin of these results see patent US6521458.
